The target of the assay is T1, WT-UreE dimer (Helicobacter pylori urease accessory protein UreE) (Helicobacter pylori, UniProt Q09064 1-170).
T1 sequence: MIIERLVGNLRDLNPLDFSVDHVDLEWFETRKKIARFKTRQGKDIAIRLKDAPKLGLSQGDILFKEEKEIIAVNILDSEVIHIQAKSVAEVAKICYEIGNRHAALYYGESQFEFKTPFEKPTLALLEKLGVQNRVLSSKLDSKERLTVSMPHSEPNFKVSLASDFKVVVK
The assay can be described thus: ITC. (ITC needs no label: the signal is the heat of the interaction.)

B1: L2*-HypA (Met1_His2insLeu variant of Helicobacter pylori HypA) (natural protein)
chain: MLHEYSVVSSLIALCEEHAKKNQAHKIERVVVGIGERSAMDKSLFVSAFETFREESLVCKDAILDIVDEKVELECKDCSHVFKPNALDYGVCEKCHSKNVIITQGNEMRLLSLEMLAE
A word on the Kd: it is the constant that tells how readily two partners part at equilibrium. As a reminder, the stoichiometry N is the number of molecules, sites or subunits per partner or assembly. In the case of B1, the Kd came to 690 ± 110 nM, the dH is -3.86 ± 0.06 kcal/mol and the “stoichiometry N” value was 1.6 ± 0.2 HypA per UreE dimer.

B2: WT-HypA (Helicobacter pylori hydrogenase maturation protein HypA, unmodified N-terminus) (natural protein)
chain: MHEYSVVSSLIALCEEHAKKNQAHKIERVVVGIGERSAMDKSLFVSAFETFREESLVCKDAILDIVDEKVELECKDCSHVFKPNALDYGVCEKCHSKNVIITQGNEMRLLSLEMLAE
Consider B2, for which the equilibrium dissociation constant (Kd) turned out to be 960 ± 90 nM, the dH was -6.27 ± 0.06 kcal/mol and the “stoichiometry N” value was determined as 1.5 ± 0.1 HypA per UreE dimer.

The record behind these values is PMC5540134 (Biochemistry, 2017).
